According to paper PMC3408433, “Selective Cytotoxicity of Amidinopiperidine Based Compounds Towards Burkitt’s Lymphoma Cells Involves Proteasome Inhibition” (PLoS ONE, 2012):

Test system: Cc1cc(=O)oc2cc(NC(=O)[C@H](Cc3ccccc3)NC(=O)[C@@H]3CCCN3C(=O)[C@H](C)NC(=O)[C@H](C)NC(=O)CCC(=O)O)ccc12
Assay: purified protein, by the assay type
Settings: other: mean of six independent experiments, pH 7.8, 30°C
Experimental: In short, a 1 nM solution of α-chymotrypsin was mixed with various concentrations of the substrate Suc-Ala-Ala-Pro-Phe-AMC. All the solutions were prepared in 144 mM Tris–HCl, pH 7.8. Substrate hydrolysis was monitored at 30°C on an automated Tecan Safire^2 microplate reader (Tecan, Mannedorf/Zürich, Switzerland). The initial rates of the reactions (ΔF/Δt) were measured immediately after the addition of the substrate (within 200 s) and plotted versus substrate concentration with nonlinear regression to fit a Michaelis-Menten plot. The curve fit and kinetic parameters (Km and v max) were calculated using GraphPad PRISM version 5.0 software (GraphPad Software, Inc., CA, USA). […] The initial velocities of the hydrolysis reactions were measured under the same conditions as described for the determination of Km. 50 µl of α-chymotrypsin solution was added to 50 µl of each inhibitor solution (prepared in 144 mM Tris–HCl, pH 7.8; final concentration 1 nM) and incubated at 30°C for 15 min. The reaction was initiated with the addition of 100 µl of substrate. […] The Ki values were determined as mean values of all measurements.

How did the Km turn out when α-chymotrypsin (Bos taurus) was run?
Its Km is 66 ± 9 µM.
